Measured values taken from the RNAGym collection of RNA variant scans (doi:10.7554/elife.90254).

B1: LINE1-full (parent)
chain: UACGUAGGUGGUUUUCCCCUGAUAGUGCUAAGGGGGCCUGGAAGUUUGGACUGGGCAGAGCUCAACACAGCGUGGCAAAGUGGCUGUGGCUAGACUGCCUCUCUGGAUUCCUCGUCACUCAGCAGGGCAUCUCUGAGAGAAAUGCC

Variants of: B1
Test: self-cleavage, relative activity (ratio to wild type); higher = more cleavage; in vitro, sequencing; the parent is a self-cleaving ribozyme

| Variant | self-cleavage |
| --- | --- |
| U73A C98U | 0.32 |
| C131U A138U | 1.27 |
| U26C C98U | 0.11 |
| C76U U102C | 0.59 |
| G7U U87C | 0.18 |
| G7U U87A | 0.12 |
| U12C A64U | 1.53 |
| C16A A107G | 0.87 |
| C63U U96C | 0 |
| A24G U112A | 1.51 |
| A69U C101U | 0.03 |
| A121G G125A | 1.29 |
| A79U C111G | 2.75 |
| U20A G49A | 1.37 |
| G75A A94G | 0.25 |
| A42U U81C | 1.28 |
| U29A A117U | 1.06 |
| U9A G27A | 0.81 |
| G34A U46A | 1.2 |
| C116A A142C | 1.54 |
| A31G U112C | 1.3 |
| G36C U85C | 0.16 |
| A69U C146U | 0.08 |
| U14C A77G | 1.73 |

| Variant | self-cleavage |
| --- | --- |
| U13C A24U | 1.11 |
| G86A C110U | 0.09 |
| A67G A142G | 0.46 |
| G35U A50U | 0.57 |
| A129G A140G | 1.47 |
| A57C U130A | 0.03 |
| U15A A77G | 0.89 |
| A42G A57G | 0.95 |
| U143C C146U | 1.51 |
| A2C C17G | 1.03 |
| A78G G97A | 0.11 |
| A138G A142C | 0.16 |
| G60A U96C | 0.01 |
| A22U A142G | 1.31 |
| G4A A92G | 0 |
| C120A U134C | 1.65 |
| G58U A136G | 0.01 |
| U39C C118A | 1.33 |
| U5C U96C | 0.26 |
| U14A U81A | 2.09 |
| U14A U81C | 1.1 |
| U46C U52A | 1.45 |
| C63U A136G | 0.34 |
| G70A C128A | 0.04 |

| Variant | self-cleavage |
| --- | --- |
| U52A C110U | 1.23 |
| G21U A136G | 1.84 |
| U46A A57G | 0.54 |
| C18A U46C | 1.65 |
| U134G A140G | 1.03 |
| A69U G114U | 0.06 |
| U9A A121C | 0.46 |
| U14A A140G | 0.91 |
| U96A G139C | 0.04 |
| A24G U85G | 0.1 |
| G35A U100C | 1.36 |
| C16U A59U | 0.8 |
| C95A U104C | 0.08 |
| C61U U119C | 0.05 |
| A30U U104A | 1.93 |
| C95U U130C | 0.21 |
| U102C C123U | 1.21 |
| U47C A78U | 1.89 |
| U47C A69G | 0.44 |
| G21A C38A | 1.07 |
| G48A A69G | 0.3 |
| A69U A79C | 0.12 |
| A6G U130A | 1.18 |
| G32A U115A | 1.5 |

| Variant | self-cleavage |
| --- | --- |
| U14A C28U | 0.66 |
| C17U A138C | 1.12 |
| U1C A136G | 1.08 |
| C16A C38U | 1.45 |
| C71U U130A | 1 |
| U81A G127A | 1.72 |
| C99U U143A | 0.39 |
| A67G A79C | 0.48 |
| U85C U119C | 0.28 |
| G27A | 1.07 |
| A77C U102C | 0 |
| U96A A124G | 0.06 |
| U20C A67U | 0.15 |
| G114A U134C | 1.13 |
| A2G A129G | 0.46 |
| U15C G82U | 1.9 |
| A57U C98G | 0.06 |
| A77G A138U | 2.56 |
| G106U | 1.05 |
| G106A | 1.48 |
| U73A A117G | 1.4 |
| C3U A117G | 0.45 |
| U73C C131A | 1.55 |
| U47G A107G | 1.24 |

| Variant | self-cleavage |
| --- | --- |
| U46A U132C | 1.32 |
| A79G G106U | 1.48 |
| U45C A67G | 1.08 |
| A78U C110U | 1.28 |
| C63U U109A | 0.12 |
| G49A U96C | 0.03 |
| C56U A67G | 0.07 |
| U134A C145U | 0.83 |
| A2G A69G | 0.32 |
| C37U U104C | 1.28 |
| A6G U47C | 0.53 |
| A107G C145U | 1.45 |
| A24G G139A | 1.3 |
| U39C A43G | 1.38 |
| U26A G40U | 0.37 |
| A6G A22U | 1.11 |
| U14C U26A | 0.95 |
| U73C C113A | 1.4 |
| C90U A117G | 0.06 |
| G7A A138G | 1.37 |
| G83A U130A | 0.99 |
| A64U A117G | 0.53 |
| G25A A79G | 0.91 |
| G8C A138G | 1.44 |

| Variant | self-cleavage |
| --- | --- |
| A30G U62A | 0.04 |
| A117U A124U | 1.26 |
| G11A U52G | 1.56 |
| U14A A78G | 0.34 |
| A77U G97U | 0.09 |
| G80A A107G | 2.12 |
| U46C A67U | 0.12 |
| A24U U73C | 1.79 |
| U47C A79G | 1.39 |
| A30C G35A | 1.51 |
| U9C A142U | 1.38 |
| U104A A140U | 1.03 |
| A43U U45C | 0.87 |
| G4A G70U | 0.11 |
| G8A A59G | 0.16 |
| U20A U143C | 0.9 |
| A30G G97A | 0.42 |
| C56A A121G | 0.03 |
| U62C U102C | 0.06 |
| U73C A129G | 1.98 |
| A6G A31G | 0.66 |
| U26C U85C | 0.27 |
| A78G U104A | 1.25 |
| U14C G48A | 1.12 |

| Variant | self-cleavage |
| --- | --- |
| G8A A77U | 1.23 |
| U62C C133A | 0.06 |
| C37U U108A | 1.01 |
| C113U A140G | 0.69 |
| U15C G93U | 0.09 |
| U85C C113A | 0.08 |
| C37U G53A | 1.33 |
| C28A A117G | 0.74 |
| G33U G74A | 0.88 |
| U119A G125U | 1.07 |
| U100G C116U | 1.61 |
| U26A A50C | 0.78 |
| U20C A92G | 0.08 |
| U100G | 1.24 |
| G54A U62C | 0.07 |
| U119C C146U | 1.68 |
| G34A U112C | 0.94 |
| A42U U73C | 1.56 |
| A79U A121G | 1.58 |
| U73A U109A | 0.92 |
| A121G U130C | 1.14 |
| U1C G144A | 0.72 |
| G4U A129G | 1.07 |
